# According to US11833164B2, “Methods of treating Fabry disease in patients having a mutation in the GLA gene” (Amicus Therapeutics, Inc., priority 2019, dated 2023):
# Numbering of substitutions follows the chain as printed. Numbers in names are those of the source.
# B1: N192H (protein)
# chain: MQLRNPELHLGCALALRFLALVSWDIPGARALDNGLARTPTMGWLHWERFMCNLDCQEEPDSCISEKLFMEMAELMVSEGWKDAGYEYLCIDDCWMAPQRDSEGRLQADPQRFPHGIRQLANYVHSKGLKLGIYADVGNKTCAGFPGSFGYYDIDAQTFADWGVDLLKFDGCYCDSLENLADGYKHMSLALHRTGRSIVYSCEWPLYMWPFQKPNYTEIRQYCNHWRNFADIDDSWKSIKSILDWTSFNQERIVDVAGPGGWNDPDMLVIGNFGLSWNQQVTQMALWAIMAAPLFMSNDLRHISPQAKALLQDKDVIAINQDPLGKQGYQLRQGDNFEVWERPLSGLAWAVAMINRQEIGGPRSYTIAVASLGKGVACNPACFITQLLPVKRKLGFYEWTSRLRSHINPTGTVLLQLENTMQMSLKDLL
# B2: F295Y (protein)
# chain: B1 chain with H192N, F295Y
# B3: L286V (protein)
# chain: B1 chain with H192N, L286V
# B4: L294I (protein)
# chain: B1 chain with H192N, L294I
# B5: F295I (protein)
# chain: B1 chain with H192N, F295I
# B6: L294V (protein)
# chain: B1 chain with H192N, L294V
# B7: I289L (protein)
# chain: B1 chain with H192N, I289L
# B8: L286H (protein)
# chain: B1 chain with H192N, L286H
# B9: A292S (protein)
# chain: B1 chain with H192N, A292S
# B10: A291G (protein)
# chain: B1 chain with H192N, A291G
# B11: L286F (protein)
# chain: B1 chain with H192N, L286F
# B12: L294F (protein)
# chain: B1 chain with H192N, L294F
# B13: I289T (protein)
# chain: B1 chain with H192N, I289T
# B14: S297T (protein)
# chain: B1 chain with H192N, S297T
# B15: A292G (protein)
# chain: B1 chain with H192N, A292G
# B16: A288V (protein)
# chain: B1 chain with H192N, A288V
# B17: F295V (protein)
# chain: B1 chain with H192N, F295V
# B18: A288G (protein)
# chain: B1 chain with H192N, A288G
# B19: F295S (protein)
# chain: B1 chain with H192N, F295S
# B20: I289V (protein)
# chain: B1 chain with H192N, I289V
# B21: A288S (protein)
# chain: B1 chain with H192N, A288S
# System: mutant form of α-Gal A expressed in HEK-293 cells
# Assay: HEK assay (GLP HEK / Migalastat Amenability Assay): α-Gal A activity in lysates of transiently transfected HEK-293 cells incubated with or without 10 μM migalastat
# Type: cell-based, human
# Conditions: 10 μM migalastat versus baseline
# Outline: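 HEK-293 cells transiently transfected with mutant α-Gal A and incubated with or without 10 μM migalastat; lysate activity given as nmol free 4-MU released per mg protein per hour. Values are mean±SEM.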
Molecule,Absolute increase (% WT),Relative increase
B1,16.4 % WT,–
B2,36.3 % WT,1.6
B3,32.9 % WT,1.4
B4,53.6 % WT,3.2
B5,25.7 % WT,1.3
B6,33.8 % WT,9.0
B7,27.5 % WT,1.3
B8,15.4 % WT,22.2
B9,21.3 % WT,1.3
B10,34.9 % WT,2.3
B11,23.2 % WT,1.4
B12,38.8 % WT,2.3
B13,36.7 % WT,2.0
B14,9.7 % WT,–
B15,24.3 % WT,1.6
B16,31.7 % WT,1.4
B17,48.0 % WT,1.7
B18,19.9 % WT,1.4
B19,10.5 % WT,16.8
B20,13.6 % WT,1.2
B21,25.8 % WT,1.2

# Same assay, conditions: 10 μM migalastat α-Gal A activity relative to baseline
row,Molecule,Relative increase
1,B1,2.8

# Same assay, conditions: 10 μM migalastat, 5 days; percentage of baseline wild-type α-Gal A activity; mean ± SEM
row,Molecule,10 μM migalastat α-Gal A activity (% WT)
1,B1,24.9 ± 3 % WT

# Same assay, conditions: absence of migalastat; percentage of baseline wild-type α-Gal A activity; mean ± SEM
row,Molecule,Baseline α-Gal A activity (% WT)
1,B1,8.6 ± 1.1 % WT
2,B2,62.9 ± 6.1 % WT
3,B3,66 ± 5.1 % WT
4,B4,24.8 ± 2.4 % WT
5,B5,78.3 ± 4.5 % WT
6,B6,4.4 ± 0.3 % WT
7,B7,96.9 ± 10.5 % WT
8,B8,0.8 ± 0.1 % WT
9,B9,68.6 ± 2.9 % WT
10,B10,26.6 ± 1.5 % WT
11,B11,64.5 ± 2.8 % WT
12,B12,29.6 ± 3 % WT
13,B13,38.6 ± 4.8 % WT
14,B15,41.1 ± 2.2 % WT
15,B16,82.5 ± 9 % WT
16,B17,73.4 ± 5.7 % WT
17,B18,56.8 ± 6.3 % WT
18,B19,0.6 ± 0.1 % WT
19,B20,61.2 ± 3.2 % WT
20,B21,114.6 ± 10.6 % WT

# Same assay, conditions: lysates of HEK-293 cells transfected with the mutant form, incubated 5 days in the absence of migalastat; mean ± SEM
row,Molecule,Baseline α-Gal A activity
1,B1,3103 ± 402 nmol/mg/h

# Same assay, conditions: lysates of HEK-293 cells transfected with the mutant form, incubated 5 days with 10 μM migalastat; mean ± SEM
row,Molecule,10 μM migalastat α-Gal A activity
1,B1,8765 ± 935 nmol/mg/h

# Same assay, conditions: lysates of HEK-293 cells transiently transfected with the mutant form, incubated 5 days in absence of migalastat; mean ± SEM
Molecule,Baseline α-Gal A activity,Baseline α-Gal A activity (nmol/mg/hr)
B2,21452 ± 1929 nmol/mg/h,–
B3,28713 ± 3734 nmol/mg/h,–
B4,8345 ± 717 nmol/mg/h,–
B5,26687 ± 1470 nmol/mg/h,–
B6,1452 ± 71 nmol/mg/h,–
B7,37941 ± 3208 nmol/mg/h,–
B8,359 ± 52 nmol/mg/h,–
B9,18002 ± 1127 nmol/mg/h,–
B10,6953 ± 474 nmol/mg/h,–
B11,29390 ± 1225 nmol/mg/h,–
B12,10147 ± 971 nmol/mg/h,–
B13,15033 ± 1450 nmol/mg/h,–
B14,–,BLD (“BLD” indicates that the mean α-Gal A activity was below the limit of detection (<142 nmol/mg/hr))
B15,12091 ± 652 nmol/mg/h,–
B16,32777 ± 3168 nmol/mg/h,–
B17,24973 ± 1752 nmol/mg/h,–
B18,22208 ± 1755 nmol/mg/h,–
B19,230 ± 45 nmol/mg/h,–
B20,25845 ± 1706 nmol/mg/h,–
B21,45790 ± 3395 nmol/mg/h,–

# Same assay, conditions: lysates of HEK-293 cells transiently transfected with the mutant form, incubated 5 days with 10 μM migalastat; mean ± SEM
row,Molecule,10 μM migalastat α-Gal A activity
1,B2,34502 ± 2504 nmol/mg/h
2,B3,41335 ± 3422 nmol/mg/h
3,B4,26761 ± 1915 nmol/mg/h
4,B5,35634 ± 2203 nmol/mg/h
5,B6,13038 ± 880 nmol/mg/h
6,B7,49640 ± 3368 nmol/mg/h
7,B8,7960 ± 1511 nmol/mg/h
8,B9,23779 ± 1584 nmol/mg/h
9,B10,16073 ± 954 nmol/mg/h
10,B11,39732 ± 2859 nmol/mg/h
11,B12,23486 ± 2100 nmol/mg/h
12,B13,29673 ± 2480 nmol/mg/h
13,B14,3178 ± 327 nmol/mg/h
14,B15,19406 ± 1361 nmol/mg/h
15,B16,45501 ± 4634 nmol/mg/h
16,B17,41782 ± 2877 nmol/mg/h
17,B18,30458 ± 2381 nmol/mg/h
18,B19,3847 ± 309 nmol/mg/h
19,B20,31489 ± 1397 nmol/mg/h
20,B21,55988 ± 2609 nmol/mg/h

# Same assay, conditions: with 10 μM migalastat, 5 days; percentage of baseline wild-type α-Gal A activity; mean ± SEM
row,Molecule,10 μM migalastat α-Gal A activity (% WT)
1,B2,99.2 ± 6.5 % WT
2,B3,98.9 ± 4.3 % WT
3,B4,78.4 ± 6 % WT
4,B5,104.1 ± 6.6 % WT
5,B6,38.2 ± 2.7 % WT
6,B7,124.4 ± 11.3 % WT
7,B8,16.2 ± 2.5 % WT
8,B9,89.9 ± 3.4 % WT
9,B10,61.5 ± 2.6 % WT
10,B11,87.7 ± 7.3 % WT
11,B12,68.4 ± 6.5 % WT
12,B13,75.3 ± 7.9 % WT
13,B14,9.7 ± 0.8 % WT
14,B15,65.3 ± 4 % WT
15,B16,114.2 ± 12.4 % WT
16,B17,121.5 ± 7.7 % WT
17,B18,76.7 ± 7.4 % WT
18,B19,11.1 ± 0.9 % WT
19,B20,74.8 ± 2.7 % WT
20,B21,140.4 ± 10.5 % WT
